Reference: article PMC4014126 (2014)

Molecular target: NF-κB activator 1 (Act1) (UniProt Q8N7N6)
Experiment: co-immunoprecipitation (anti-Myc IP, Western blot, ImageJ densitometry)
Settings: IL-17RA-deficient MEFs reconstituted by retroviral infection; treated with IL-17 for 10 min; parent: 100

Myc-tagged mouse IL-17RA, sequence (Q60943 32-864, stated change not applied): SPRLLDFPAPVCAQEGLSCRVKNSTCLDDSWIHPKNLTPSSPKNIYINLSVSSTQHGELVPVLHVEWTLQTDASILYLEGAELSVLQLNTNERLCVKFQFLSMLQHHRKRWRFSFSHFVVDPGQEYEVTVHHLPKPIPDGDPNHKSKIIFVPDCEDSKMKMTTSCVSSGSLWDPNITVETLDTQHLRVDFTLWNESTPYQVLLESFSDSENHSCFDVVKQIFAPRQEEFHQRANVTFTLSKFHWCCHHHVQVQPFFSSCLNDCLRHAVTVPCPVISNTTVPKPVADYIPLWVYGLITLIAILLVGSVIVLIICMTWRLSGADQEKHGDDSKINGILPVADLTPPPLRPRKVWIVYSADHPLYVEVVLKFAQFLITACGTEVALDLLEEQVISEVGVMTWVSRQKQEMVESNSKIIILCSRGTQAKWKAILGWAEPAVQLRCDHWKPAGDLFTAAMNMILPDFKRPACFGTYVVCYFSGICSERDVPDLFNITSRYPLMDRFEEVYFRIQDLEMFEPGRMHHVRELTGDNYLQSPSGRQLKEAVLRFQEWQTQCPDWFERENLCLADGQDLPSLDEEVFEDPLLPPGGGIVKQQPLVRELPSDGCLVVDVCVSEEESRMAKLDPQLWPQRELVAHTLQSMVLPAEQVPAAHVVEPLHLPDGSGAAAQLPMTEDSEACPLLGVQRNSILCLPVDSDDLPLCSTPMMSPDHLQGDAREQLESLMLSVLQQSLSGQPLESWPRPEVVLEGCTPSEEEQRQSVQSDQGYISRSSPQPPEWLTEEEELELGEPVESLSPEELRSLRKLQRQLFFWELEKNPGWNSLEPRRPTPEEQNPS
NF-κB activator 1 (Act1), sequence (Q8N7N6 whole entry): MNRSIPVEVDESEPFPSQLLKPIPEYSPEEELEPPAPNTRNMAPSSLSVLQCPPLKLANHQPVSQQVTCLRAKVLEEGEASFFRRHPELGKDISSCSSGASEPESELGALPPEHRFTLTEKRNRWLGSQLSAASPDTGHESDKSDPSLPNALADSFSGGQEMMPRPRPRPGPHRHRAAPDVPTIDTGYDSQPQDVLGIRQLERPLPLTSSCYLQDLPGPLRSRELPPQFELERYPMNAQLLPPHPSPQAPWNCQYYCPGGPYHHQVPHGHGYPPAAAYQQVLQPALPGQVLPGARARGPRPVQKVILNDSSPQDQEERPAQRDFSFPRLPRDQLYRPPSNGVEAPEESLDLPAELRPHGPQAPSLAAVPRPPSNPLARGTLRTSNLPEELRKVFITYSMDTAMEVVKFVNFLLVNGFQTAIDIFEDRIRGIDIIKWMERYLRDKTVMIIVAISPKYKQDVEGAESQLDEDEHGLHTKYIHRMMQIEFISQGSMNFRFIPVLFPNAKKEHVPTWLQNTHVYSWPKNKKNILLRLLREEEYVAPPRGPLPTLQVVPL

For “Myc-tagged mouse IL-17RA (from UniProt Q60943) T483A; N488A; M489A”, the percent of parent was 31.
